Results: PMC5864733 (Nature Communications, 2018)

Molecular target: T1, CesT (residues 1-156), 6xHis-tagged, wild type (enteropathogenic E. coli (EPEC) O127:H6 …, UniProt P21244 1-156)
T1 construct: source: E. coli BL21(DE3), purified (Ni-NTA, gel filtration); not shown: His6, N-terminal, kept
Experiment: SPR
Conditions: both partners purified

T1 sequence (P21244 whole entry, the tested form may be a part): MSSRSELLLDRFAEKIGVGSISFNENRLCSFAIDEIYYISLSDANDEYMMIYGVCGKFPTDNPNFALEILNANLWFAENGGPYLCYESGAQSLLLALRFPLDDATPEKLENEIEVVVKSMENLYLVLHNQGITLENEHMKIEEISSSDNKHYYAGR

B1: CsrA (residues 1-61), GST tag removed (natural protein)
chain: not shown
notes: also called WT CsrA; native CsrA
  KD of the first ligand binding site in CsrA (Bivalent-Analyte model): ~148 nM
